Columns and labels:
[1] = target: Strep-tagged ACDC domain of PvAP2-I (residues 30-180) (P. vivax); assay: thermal shift assay
[2] = target: His-tagged PvBDP1 ankyrin domain (fragment 1-220) (P. vivax); assay: thermal shift assay

Row | Substance | Tm of the ACDC domain with peptide at a 1:10 molar ratio (61.1°C alone) [1] [°C] | Tm of the ACDC domain with peptide at a 1:40 molar ratio (61.1°C alone) [1] [°C] | Tm of the ankyrin domain with peptide at a 1:10 molar ratio (50.0°C alone) [2] [°C] | Tm of the ankyrin domain with peptide at a 1:40 molar ratio (50.0°C alone) [2] [°C]
1 | synthetic peptide corresponding to PvBDP1 BAAS (residues 275-296) | 60.1 | 59.8 | – | –
2 | synthetic peptide corresponding to the α3 helix of ASAIR of PvAP2-I (residues 280-310) | – | – | 50.7 | 51.2
